Measurements: patent EP4361176A1 (CHUGAI SEIYAKU KABUSHIKI KAISHA, dated 2024)
Changes are numbered by the printed parent chain.

B1: 04H1389-G1m/04L1305-k0MT (antibody, human IgG1, kappa)
heavy: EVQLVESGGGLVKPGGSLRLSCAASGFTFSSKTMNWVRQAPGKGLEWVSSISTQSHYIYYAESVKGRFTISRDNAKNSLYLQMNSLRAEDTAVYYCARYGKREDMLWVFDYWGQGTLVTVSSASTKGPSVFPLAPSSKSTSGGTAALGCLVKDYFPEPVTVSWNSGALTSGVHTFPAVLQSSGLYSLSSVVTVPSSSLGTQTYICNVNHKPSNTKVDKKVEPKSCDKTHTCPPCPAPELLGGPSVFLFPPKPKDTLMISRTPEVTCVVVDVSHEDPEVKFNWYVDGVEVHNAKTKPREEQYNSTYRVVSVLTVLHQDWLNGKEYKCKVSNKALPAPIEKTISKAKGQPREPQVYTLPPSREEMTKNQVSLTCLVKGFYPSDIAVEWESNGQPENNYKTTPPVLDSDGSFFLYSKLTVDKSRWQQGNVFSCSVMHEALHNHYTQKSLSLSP
light: DIVMTQSPLSLPVTPGEPASISCDGPSTGVGDYNYVHWYQQKPGQAPRLLIYFTSKKPSGVPDRFSGSGSGTDFTLKISRVEAEDVGVYYCQTYAAPLGPMFGQGTKLEIKRTVAAPSVFIFPPSDEQLKSGTASVVCLLNNFYPREAKVQWKVDNALQSGNSQESVTEQDSKDSTYSLSSTLTLSKADYEKHKVYACEVTHQGLSSPVTKSFNRGEC
notes: Human IgG1 (G1m), human kappa
B2: H240-G1d/L73-k_glycomab (antibody)
chain 1: not shown
chain 2: DIQMTQSPSSLSASVGDRVTITCRASQDIHKYIAWYQQKPGQAPRLLIQYTSTLQPGVPSRFSGSGSGTDYTFTISSLQPEDIATYYCLQYEQLRTFGGGTKVEIK
modifications: fucose-deficient (afucosylated) Fc sugar chain
B3: 04H1208-G1m/04L1407-k0MT (antibody, human IgG1, kappa, V domains shown)
VH: EVQLVESGGGLVKPGGSLRLSCAASGFTFSSKTMNWVRQAPGKGLEWVSSISTRSGYIYYARSVKGRFTISRDNAKNSLYLQMNSLRAEDTAVYYCARYGKREDMLWVFDYWGQGTLVTVSS
VL: DIVMTQSPLSLPVTPGEPASISCDGPSTDVGDYNWVHWYQQKPGQAPRLLIYYTSSKPEGVPDRFSGSGSGTDFTLKISRVEAEDVGVYYCQTYAAPLGPTFGQGTKLEIKR
B4: 04H1389-G1m/04L1086-lam1 (antibody, human IgG1, lambda, V domains shown)
VH: B3 VH with R54Q, G56H, R62E
VL: QSALTQPPSASGSPGQTVTISCDGPSTGVGDYNYVHWYQQHPGKAPKLMIYFTSKKPSGVPDRFSGSKSGNTASLTVSGLQAEDEADYFCQTYAAPLGPMFGGGTKLTVLG
notes: Human IgG1 (G1m), human lambda

How the values were obtained:
[1] = molecular target: T1, human CTLA4 (hCTLA4-His-BAP: human CTLA4 extracellular region with C-terminal His-tag and BAP-tag) (human); test: SPR (Biacore T200, 37C), antibody captured, human CTLA4 at 1000 nM, ATP 1 uM
T1 construct: This tie is an inference

[2] = molecular target: T1, human CTLA4 (hCTLA4-His-BAP: human …); test: SPR (Biacore T200, 37C), antibody captured, human CTLA4 at 1000 nM, ATP 100 uM
[3] = molecular target: T1, human CTLA4 (hCTLA4-His-BAP: human …); test: SPR (Biacore T200, 37C), antibody captured, human CTLA4 at 1000 nM, no ATP
[4] = molecular target: T1, human CTLA4 (hCTLA4-His-BAP: human …); test: SPR (Biacore T200, 37C), antibody captured, human CTLA4 at 1000 nM, ATP 10 uM
[5] = molecular target: T2, human FcγRIIb extracellular domain (human, UniProt P31994 43-217); test: SPR (Biacore 8K+), captured antibody, steady state affinity model
T2 construct: extracellular domain; Made by the method of WO2014104165; also called hFcγR IIb; FcyRIIb
T2 sequence (looked up): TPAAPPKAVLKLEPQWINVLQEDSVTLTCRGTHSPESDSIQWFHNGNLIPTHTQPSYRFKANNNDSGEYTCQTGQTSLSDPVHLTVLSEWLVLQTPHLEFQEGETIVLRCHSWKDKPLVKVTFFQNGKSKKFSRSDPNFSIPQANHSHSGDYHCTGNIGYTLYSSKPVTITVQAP

[6] = molecular target: T3, human FcγRIIa H extracellular domain (human, UniProt P12318 34-217); test: SPR; KD of G1d divided by KD of this antibody
T3 construct: extracellular domain; Made by the method of WO2014104165; also called hFcγR IIa H; FcyRIIaH
T3 sequence (looked up): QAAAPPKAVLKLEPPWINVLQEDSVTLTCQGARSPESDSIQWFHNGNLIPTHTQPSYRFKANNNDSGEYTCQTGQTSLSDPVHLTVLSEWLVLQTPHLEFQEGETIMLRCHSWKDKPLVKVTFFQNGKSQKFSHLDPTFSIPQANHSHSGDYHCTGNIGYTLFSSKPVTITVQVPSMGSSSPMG

[7] = molecular target: T2, human FcγRIIb extracellular domain; test: SPR; KD of G1d divided by KD of this antibody
[8] = molecular target: T3, human FcγRIIa H extracellular domain; test: SPR (Biacore 8K+), captured antibody, 1:1 Langmuir model
mCTLA4-His = molecular target: T4, mCTLA4-His (mouse, UniProt P09793 36-161); test: SPR Biacore T200, 100 uM ATP
T4 construct: Mouse CTLA4 extracellular region linked with a His-tag; also called mouse CTLA4; Mouse CTLA4

Binder	Binding to Human CTLA4 (binding amount per unit amount of antibody) [1]	Binding to Human CTLA4 (binding amount per unit amount of antibody) [2]	Binding to Human CTLA4 (binding amount per unit amount of antibody) [3]	Binding to Human CTLA4 (binding amount per unit amount of antibody) [4]	Kd [5]	Relative value to KD between G1d and hFcgRs [6]	Relative value to KD between G1d and hFcgRs [7]	Kd [8]	fold weaker binding to mouse CTLA4 than to human CTLA4 (mCTLA4-His)
B1	0.12	0.151	0.03	0.154					
B2					5.65 µM	1.1	1.8	0.999 µM	
B3									~2 fold
B4	0.138	0.193	0.022	0.189					
